According to patent publication US20250197490A1 (HBM ALPHA THERAPEUTICS, published 2025):
Values joined by “and” are separate entries in the source; they are usually repeats but may differ in a detail not shown here. Identical values can stand only once.

T1: corticotropin-releasing hormone (CRH) peptide (human and mouse, UniProt P01143 145-185 (rat entry), not fully specified)
T1 peptide: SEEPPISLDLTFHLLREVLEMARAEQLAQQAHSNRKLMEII


Molecular target: T1, corticotropin-releasing hormone (CRH) …
Test: cell-based or functional assay

hCRHR1-Luc 0.5 nM CRH IC50	Binder
0.192 nM	PR302341-24 (antibody, human IgG1, kappa, V domains shown) VH: QVQLVQSGAEVKKPGASVKVSCKASGYTFTDYFMKWVRQAPGQRLEWMGVINPNNGDIFYNQKFKGRVTITVDKSASTAYMELSSLRSEDTAVYYCARGTDRALFAYWGQGTLVTVSS VL: DVVMTQTPLSSPVTLGQPASISCRSGQSIVHSDGNTYLEWYQQRPGQPPRLLIYKVSNRFSGVPDRFSGSGAGTDFTLKISRVEAEDLGVYYCFQGSHIPWTFGGGTKVEIKR
0.162 nM	PR302341-20 (antibody, human IgG1, kappa, V domains shown) VH: QVQLVQSGAEVKKPGASVKVSCKASGYTFTDYFMKWVRQAPGQRLEWMGVINPNNGDIFYNQKFKGRVTITRDTSASTAYMELSSLRSEDTAVYYCARGTDRALFAYWGQGTLVTVSS VL: DVVMTQSPLSLPVTLGQPASISCRSGQSIVHSDGNTYLEWYQQRPGQSPRLLIYKVSNRFSGVPDRFSGSGSGTDFTLKISRVEAEDLGVYYCFQGSHIPWTFGGGTKVEIKR
0.225 nM	PR302341-16 (antibody, human IgG1, kappa, V domains shown) VH: QVQLVQSGAEVKKPGASVKVSCKASGYTFTDYFMKWVRQAPGQRLEWMGVINPNNGDIFYNQKFKGRVTITVDKSASTAYMELSSLRSEDTAVYYCARGTDRALFAYWGQGTLVTVSS VL: DVLMTQTPLSLPVSLGDQASISCRSGQSIVHSDGNTYLEWYLQRPGQSPRLLIYKVSNRFSGVPDRFSGSGSGTDFTLKISRVGAEDLGIYYCFQGSHIPWTFGGGTKLEVKR
0.177 nM	PR302341-21 (antibody, human IgG1, kappa, V domains shown) VH: QVQLVQSGAEVKKPGASVKVSCKASGYTFTDYFMKWVRQAPGQRLEWMGVINPNNGDIFYNQKFKGRVTITVDKSASTAYMELSSLRSEDTAVYYCARGTDRALFAYWGQGTLVTVSS VL: DVVMTQSPLSLPVTLGQPASISCRSGQSIVHSDGNTYLEWYQQRPGQSPRLLIYKVSNRFSGVPDRFSGSGSGTDFTLKISRVEAEDLGVYYCFQGSHIPWTFGGGTKVEIKR
0.075 nM	PR302341-14 (antibody, human IgG1, kappa, V domains shown) VH: QVQLVQSGAEVKKPGASVKVSCKASGYTFTDYFMKWVRQAPGQGLEWMGVINPNNGDIFYNQKFKGRVTMTVDKSTSTAYMELSSLRSEDTAVYYCARGTDRALFAYWGQGTLVTVSS VL: DVLMTQTPLSLPVSLGDQASISCRSGQSIVHSDGNTYLEWYLQRPGQSPRLLIYKVSNRFSGVPDRFSGSGSGTDFTLKISRVGAEDLGIYYCFQGSHIPWTFGGGTKLEVKR
0.121 nM	PR302341-19 (antibody, human IgG1, kappa, V domains shown) VH: QVQLVQSGAEVKKPGASVKVSCKASGYTFTDYFMKWVRQAPGQGLEWMGVINPNNGDIFYNQKFKGRVTMTRDTSTSTVYMELSSLRSEDTAVYYCARGTDRALFAYWGQGTLVTVSS VL: DVVMTQSPLSLPVTLGQPASISCRSGQSIVHSDGNTYLEWYQQRPGQSPRLLIYKVSNRFSGVPDRFSGSGSGTDFTLKISRVEAEDLGVYYCFQGSHIPWTFGGGTKVEIKR
0.124 nM	PR302341-15 (antibody, human IgG1, kappa, V domains shown) VH: QVQLVQSGAEVKKPGASVKVSCKASGYTFTDYFMKWVRQAPGQRLEWMGVINPNNGDIFYNQKFKGRVTITRDTSASTAYMELSSLRSEDTAVYYCARGTDRALFAYWGQGTLVTVSS VL: DVLMTQTPLSLPVSLGDQASISCRSGQSIVHSDGNTYLEWYLQRPGQSPRLLIYKVSNRFSGVPDRFSGSGSGTDFTLKISRVGAEDLGIYYCFQGSHIPWTFGGGTKLEVKR

The next lines start with the binder.

Binder	hCRHR1-Luc 0.5 nM CRH IC50
PR302341-7 (antibody, human IgG1, kappa, V domains shown) VH: QVQLVQSGAEVKKPGASVKVSCKASGYTFTDYFMKWVRQAPGQGLEWMGVINPNNGDIFYNQKFKGRVTMTVDKSTSTAYMELSSLRSEDTAVYYCARGTDRALFAYWGQGTLVTVSS VL: DVVMTQSPLSLPVTLGQPASISCRSGQSIVHSDGNTYLEWFQQRPGQSPRRLIYKVSNRFSGVPDRFSGSGSGTDFTLKISRVEAEDVGVYYCFQGSHIPWTFGGGTKVEIKR	0.23 nM
PR302341-11 (antibody, human IgG1, kappa, V domains shown) VH: QVQLVQSGAEVKKPGASVKVSCKASGYTFTDYFMKWVRQAPGQGLEWMGVINPNNGDIFYNQKFKGRVTMTVDKSTSTAYMELSSLRSEDTAVYYCARGTDRALFAYWGQGTLVTVSS VL: DIVMTQTPLSLSVTPGQPASISCRSGQSIVHSDGNTYLEWYLQKPGQSPQLLIYKVSNRFSGVPDRFSGSGSGTDFTLKISRVEAEDVGVYYCFQGSHIPWTFGGGTKVEIKR	0.467 nM
PR302341-10 (antibody, human IgG1, kappa, V domains shown) VH: QVQLVQSGAEVKKPGASVKVSCKASGYTFTDYFMKWVRQAPGQGLEWMGVINPNNGDIFYNQKFKGRVTMTVDKSTSTAYMELSSLRSEDTAVYYCARGTDRALFAYWGQGTLVTVSS VL: DVVMTQTPLSSPVTLGQPASISCRSGQSIVHSDGNTYLEWYQQRPGQPPRLLIYKVSNRFSGVPDRFSGSGAGTDFTLKISRVEAEDLGVYYCFQGSHIPWTFGGGTKVEIKR	0.11 nM
PR302341-9 (antibody, human IgG1, kappa, V domains shown) VH: QVQLVQSGAEVKKPGASVKVSCKASGYTFTDYFMKWVRQAPGQGLEWMGVINPNNGDIFYNQKFKGRVTMTVDKSTSTAYMELSSLRSEDTAVYYCARGTDRALFAYWGQGTLVTVSS VL: DIVMTQTPLSSPVTLGQPASISCRSGQSIVHSDGNTYLEWLQQRPGQPPRLLIYKVSNRFSGVPDRFSGSGAGTDFTLKISRVEAEDVGVYYCFQGSHIPWTFGGGTKVEIKR	0.234 nM
PR302341-12 (antibody, human IgG1, kappa, V domains shown) VH: QVQLVQSGAEVKKPGASVKVSCKASGYTFTDYFMKWVRQAPGQGLEWMGVINPNNGDIFYNQKFKGRVTMTVDKSTSTAYMELSSLRSEDTAVYYCARGTDRALFAYWGQGTLVTVSS VL: DVVMTQTPLSLSVTPGQPASISCRSGQSIVHSDGNTYLEWYLQKPGQSPQLLIYKVSNRFSGVPDRFSGSGSGTDFTLKISRVEAEDLGVYYCFQGSHIPWTFGGGTKVEIKR	0.25 nM
PR302341 (antibody, human IgG1, kappa, V domains shown) VH: EVQLQQSGPELVKPGASVKMSCKASGYTFTDYFMKWVKQSHGESLEWIGVINPNNGDIFYNQKFKGKATLTVDKSSSTAFMQLNSLTSEDSAVYSCARGTDRALFAYWGQGTLVAVSA VL: DVLMTQTPLSLPVSLGDQASISCRSGQSIVHSDGNTYLEWYLQRPGQSPRLLIYKVSNRFSGVPDRFSGSGSGTDFTLKISRVGAEDLGIYYCFQGSHIPWTFGGGTKLEVKR	0.139 nM and 0.231 nM
PR302341-4 (antibody, human IgG1, kappa, V domains shown) VH: EVQLQQSGPELVKPGASVKMSCKASGYTFTDYFMKWVKQSHGESLEWIGVINPNNGDIFYNQKFKGKATLTVDKSSSTAFMQLNSLTSEDSAVYSCARGTDRALFAYWGQGTLVAVSA VL: DVVMTQTPLSSPVTLGQPASISCRSGQSIVHSDGNTYLEWYQQRPGQPPRLLIYKVSNRFSGVPDRFSGSGAGTDFTLKISRVEAEDLGVYYCFQGSHIPWTFGGGTKVEIKR	0.107 nM
PR302341-3 (antibody, human IgG1, kappa, V domains shown) VH: EVQLQQSGPELVKPGASVKMSCKASGYTFTDYFMKWVKQSHGESLEWIGVINPNNGDIFYNQKFKGKATLTVDKSSSTAFMQLNSLTSEDSAVYSCARGTDRALFAYWGQGTLVAVSA VL: DIVMTQTPLSSPVTLGQPASISCRSGQSIVHSDGNTYLEWLQQRPGQPPRLLIYKVSNRFSGVPDRFSGSGAGTDFTLKISRVEAEDVGVYYCFQGSHIPWTFGGGTKVEIKR	0.128 nM
PR302341-8 (antibody, human IgG1, kappa, V domains shown) VH: QVQLVQSGAEVKKPGASVKVSCKASGYTFTDYFMKWVRQAPGQGLEWMGVINPNNGDIFYNQKFKGRVTMTVDKSTSTAYMELSSLRSEDTAVYYCARGTDRALFAYWGQGTLVTVSS VL: DVVMTQSPLSLPVTLGQPASISCRSGQSIVHSDGNTYLEWYQQRPGQSPRLLIYKVSNRFSGVPDRFSGSGSGTDFTLKISRVEAEDLGVYYCFQGSHIPWTFGGGTKVEIKR	0.165 nM
PR302341-5 (antibody, human IgG1, kappa, V domains shown) VH: EVQLQQSGPELVKPGASVKMSCKASGYTFTDYFMKWVKQSHGESLEWIGVINPNNGDIFYNQKFKGKATLTVDKSSSTAFMQLNSLTSEDSAVYSCARGTDRALFAYWGQGTLVAVSA VL: DIVMTQTPLSLSVTPGQPASISCRSGQSIVHSDGNTYLEWYLQKPGQSPQLLIYKVSNRFSGVPDRFSGSGSGTDFTLKISRVEAEDVGVYYCFQGSHIPWTFGGGTKVEIKR	0.73 nM
PR302341-2 (antibody, human IgG1, kappa, V domains shown) VH: EVQLQQSGPELVKPGASVKMSCKASGYTFTDYFMKWVKQSHGESLEWIGVINPNNGDIFYNQKFKGKATLTVDKSSSTAFMQLNSLTSEDSAVYSCARGTDRALFAYWGQGTLVAVSA VL: DVVMTQSPLSLPVTLGQPASISCRSGQSIVHSDGNTYLEWYQQRPGQSPRLLIYKVSNRFSGVPDRFSGSGSGTDFTLKISRVEAEDLGVYYCFQGSHIPWTFGGGTKVEIKR	0.168 nM
PR302341-6 (antibody, human IgG1, kappa, V domains shown) VH: EVQLQQSGPELVKPGASVKMSCKASGYTFTDYFMKWVKQSHGESLEWIGVINPNNGDIFYNQKFKGKATLTVDKSSSTAFMQLNSLTSEDSAVYSCARGTDRALFAYWGQGTLVAVSA VL: DVVMTQTPLSLSVTPGQPASISCRSGQSIVHSDGNTYLEWYLQKPGQSPQLLIYKVSNRFSGVPDRFSGSGSGTDFTLKISRVEAEDLGVYYCFQGSHIPWTFGGGTKVEIKR	0.363 nM
PR302341-13 (antibody, human IgG1, kappa, V domains shown) VH: QVQLVQSGAEVKKPGASVKVSCKASGYTFTDYFMKWVRQAPGQGLEWMGVINPNNGDIFYNQKFKGRVTMTRDTSTSTVYMELSSLRSEDTAVYYCARGTDRALFAYWGQGTLVTVSS VL: DVLMTQTPLSLPVSLGDQASISCRSGQSIVHSDGNTYLEWYLQRPGQSPRLLIYKVSNRFSGVPDRFSGSGSGTDFTLKISRVGAEDLGIYYCFQGSHIPWTFGGGTKLEVKR	0.124 nM
PR302341-1 (antibody, human IgG1, kappa, V domains shown) VH: EVQLQQSGPELVKPGASVKMSCKASGYTFTDYFMKWVKQSHGESLEWIGVINPNNGDIFYNQKFKGKATLTVDKSSSTAFMQLNSLTSEDSAVYSCARGTDRALFAYWGQGTLVAVSA VL: DVVMTQSPLSLPVTLGQPASISCRSGQSIVHSDGNTYLEWFQQRPGQSPRRLIYKVSNRFSGVPDRFSGSGSGTDFTLKISRVEAEDVGVYYCFQGSHIPWTFGGGTKVEIKR	0.397 nM
